B1: REGN-10987 (Imdevimab) (antibody, V domains shown)
VH: QVQLVESGGGVVQPGRSLRLSCAASGFTFSNYAMYWVRQAPGKGLEWVAVISYDGSNKYYADSVKGRFTISRDNSKNTLYLQMNSLRTEDTAVYYCASGSDYGDYLLVYWGQGTLVTVSS
VL: QSALTQPASVSGSPGQSITISCTGTSSDVGGYNYVSWYQQHPGKAPKLMIYDVSKRPSGVSNRFSGSKSGNTASLTISGLQSEDEADYYCNSLTSISTWVFGGGTKLTVL

Molecular target: SARS CoV-1 RBD (SARS-CoV-1)
Experiment: ELISA

| Molecule | EC50 |
| --- | --- |
| REGN10933 (Casirivimab) (antibody) | 0.014 µM |
| B1 | > 0.1 µM |

— article PMC8920075
